Reference: patent US20020119572

Molecular target: T1, gold nanoparticle linked S18 peptide
T1 chain: CGGKETAAAKFERQHMDS

B1: S-protein of Ribonuclease S (protein)
chain: SSSNYCNQMMKSRNLTKDRCKPVNTFVHESLADVQAVCSQKNVACKNGQTNCYQSYSTMSITDCRETGSSKYPNCAYKTTQANKHIIVACEGNPYVPVHFDASV
B1 was tested, and the “RF power level at 50% RNase S activity (poly C hydrolysis)” value was -4 dBm at the 50% activity and the “RNase S activity (digested polyC, absorption at 280 nm) with RFMF on and off” value was “The activity with the RFMF on was less than with the RFMF off”.
